Measurements: publication PMC3032713

Biological target: RBSDV P9-1 as used in vitro (data not shown) (Rice black-streaked dwarf virus)
Assay: not stated; P9-1 dimers in vitro; data not shown

Substance: RBSDV P9-1 as used in vitro (data not shown) (natural protein)
- stoichiometry N: 2
